Data on eight sequences can be found in the Immune Epitope Database (IEDB).

In one assay the target is HLA-C*06:02. The assay can be described thus: IEDB peptide-MHC binding, purified MHC/direct/fluorescence; filed as Kd, often an IC50 or EC50 that approximates it; ≥ and ≤ were set here for values at or beyond the usual limits of such assays. The note with it: source organism: Influenza A virus (A/81/HO).
The next assay addresses HLA-B*15:01. The assay can be described thus: IEDB peptide-MHC binding, purified MHC/competitive/fluorescence; filed as Kd, often an IC50 or EC50 that approximates it; ≥ and ≤ were set here for values at or beyond the usual limits of such assays.
Another assay concerns the target HLA-B*35:01. Described as above.
The next assay addresses HLA-B*46:01. The assay is described as above.
A further assay has as its target HLA-A*01:01. The assay is described as above.
Another assay concerns the target HLA-B*58:01. The description is as above. The note with it: source organism: Yersinia pestis Nepal516.
The target of another assay is HLA-A*02:01. The assay is described as above.
The target in the next assay is HLA-A*02:03. The assay is described as above.
The target in a further assay is HLA-A*02:16. The assay is described as above.
A further assay addresses HLA-A*02:19. The assay is described as above.
The next assay addresses HLA-A*03:01. The assay is described as above.
The target of a further assay is HLA-A*23:01. The description is as above.
Another assay has as its target HLA-A*24:03. The description is as above.
The next assay addresses HLA-A*26:01. Described as above.
The target of the next assay is HLA-A*29:02. Described as above.
A further assay concerns the target HLA-B*15:17. The description is as above.
A further assay has as its target HLA-B*18:01. Described as above.
A further assay addresses HLA-B*27:03. Described as above.
The target of the next assay is HLA-B*39:01. The description is as above.
Another assay deals with HLA-B*51:01. Described as above. Conditions: source organism: Giardia lamblia ATCC 50803.
Another assay deals with HLA-B*57:01. The assay is described as above.
A further assay has as its target HLA-A*02:11. Described as above.
The next assay addresses HLA-A*02:12. The description is as above.
The target of the next assay is HLA-A*68:02. The assay is described as above.
A further assay has as its target HLA-A*69:01. Described as above.
Where [1] appears, read: source organism: Influenza A virus (A/81/HO).
The mark [2] stands for this setting: source organism: Yersinia pestis Nepal516.
[3] abbreviates: source organism: Giardia lamblia ATCC 50803.
Setting [4] is: source organism: Klebsiella pneumoniae subsp. pneumoniae NTUH-K2044.
Setting [5] is: source organism: Bacillus anthracis str. A0488.

Where only a bound is given, the exact number is not on record here.

One may read the Kd as the free concentration of one partner at which half of the binding sites on the other are occupied at equilibrium, for simple one-to-one binding. High values mean a looser complex, low ones a tighter complex. In the case of WMACNSAAF, the Kd with HLA-C*06:02 was at least 20 µM; with HLA-B*15:01 (setting [1]), 0.0146 µM; with HLA-B*35:01 (setting [1]), 0.0002 µM; with HLA-B*46:01 (setting [1]), 0.109 µM.
As for FTWSGDVRY, the results for the equilibrium dissociation constant (Kd) with HLA-A*01:01 (setting [2]), with HLA-B*35:01 (setting [2]) and with HLA-B*58:01 were 0.132 µM, at most 0.0001 µM and 0.404 µM, respectively.
As for NAMGADYYA, the dissociation constant Kd with HLA-A*02:01 (setting [3]) was at least 20 µM; in the assay with HLA-A*02:03 (setting [3]), at least 20 µM; in the assay with HLA-A*02:16 (setting [3]), at least 20 µM; in the assay with HLA-A*02:19 (setting [3]), 0.0151 µM; with HLA-A*03:01 (setting [3]) it was at least 20 µM; in the assay with HLA-A*23:01 (setting [3]) it was at least 20 µM. Besides, the equilibrium dissociation constant (Kd) with HLA-A*24:03 (setting [3]) was at least 20 µM; in the assay with HLA-A*26:01 (setting [3]) it was at least 20 µM; with HLA-A*29:02 (setting [3]), 0.869 µM; in the assay with HLA-B*15:01 (setting [3]), at least 20 µM; with HLA-B*15:17 (setting [3]) it was at least 20 µM; with HLA-B*18:01 (setting [3]) it was at least 20 µM. Also, the equilibrium dissociation constant (Kd) in the assay with HLA-B*27:03 (setting [3]), with HLA-B*39:01 (setting [3]), with HLA-B*46:01 (setting [3]), with HLA-B*51:01 and with HLA-B*57:01 (setting [3]) was at least 20 µM each time.
For the sequence KVLSHGWAY, the dissociation constant Kd with HLA-A*03:01 (setting [4]) was 0.429 µM; in the assay with HLA-B*35:01 (setting [4]), 0.0267 µM.
For TEDDWITYI, the dissociation constant Kd is at least 20 µM with HLA-A*02:01 (setting [3]); at least 20 µM in the assay with HLA-A*02:03 (setting [3]); at least 20 µM with HLA-A*02:11 (setting [3]); at least 20 µM with HLA-A*02:12 (setting [3]); 0.402 µM with HLA-A*02:16 (setting [3]); at least 20 µM in the assay with HLA-A*02:19 (setting [3]). Moreover, the Kd in the assay with HLA-A*03:01 (setting [3]), with HLA-A*23:01 (setting [3]), with HLA-A*24:03 (setting [3]), in the assay with HLA-A*26:01 (setting [3]), in the assay with HLA-A*29:02 (setting [3]) and with HLA-A*68:02 (setting [3]) was at least 20 µM throughout. The Kd with HLA-A*69:01 (setting [3]), in the assay with HLA-B*15:01 (setting [3]), with HLA-B*15:17 (setting [3]), with HLA-B*18:01 (setting [3]), with HLA-B*27:03 (setting [3]) and with HLA-B*39:01 (setting [3]) was at least 20 µM each time. Further, the Kd with HLA-B*46:01 (setting [3]), in the assay with HLA-B*51:01 and with HLA-B*57:01 (setting [3]) was at least 20 µM each time.
Consider SASLAALFY, for which the Kd came out at 0.0281 µM with HLA-A*01:01 (setting [5]) and 0.0002 µM with HLA-B*35:01 (setting [5]).
Regarding FTIRDVLAY, the Kd was 0.0025 µM in the assay with HLA-A*01:01 (setting [2]), at least 20 µM with HLA-A*03:01 (setting [2]), 0.0013 µM with HLA-B*35:01 (setting [2]) and 0.0041 µM in the assay with HLA-B*58:01.
As to VIMWYNYLF, the Kd is at least 20 µM with HLA-A*02:01 (source organism: Fowlpox virus); at least 20 µM with HLA-A*02:03 (source organism: Fowlpox virus); 0.0047 µM with HLA-A*02:11 (source organism: Fowlpox virus); at least 20 µM with HLA-A*02:12 (source organism: Fowlpox virus); at least 20 µM in the assay with HLA-A*02:16 (source organism: Fowlpox virus); at least 20 µM with HLA-A*02:19 (source organism: Fowlpox virus). Besides, the Kd with HLA-A*03:01 (source organism: Fowlpox virus), in the assay with HLA-A*23:01 (source organism: Fowlpox virus), with HLA-A*24:03 (source organism: Fowlpox virus), in the assay with HLA-A*26:01 (source organism: Fowlpox virus), in the assay with HLA-A*29:02 (source organism: Fowlpox virus) and with HLA-A*68:02 (source organism: Fowlpox virus) was at least 20 µM in each case. Moreover, the Kd in the assay with HLA-A*69:01 (source organism: Fowlpox virus), in the assay with HLA-B*15:01 (source organism: Fowlpox virus), with HLA-B*15:17 (source organism: Fowlpox virus), with HLA-B*18:01 (source organism: Fowlpox virus), with HLA-B*27:03 (source organism: Fowlpox virus) and with HLA-B*39:01 (source organism: Fowlpox virus) was at least 20 µM in each case. Also, the Kd with HLA-B*46:01 (source organism: Fowlpox virus) and with HLA-B*57:01 (source organism: Fowlpox virus) was at least 20 µM in each case.
